Assay results published in patent US10801046B2, “Methods and materials for biosynthesizing multifunctional, multivariate molecules via carbon chain modification” (INVISTA NORTH AMERICA S.A.R.L., priority 2016, dated 2020).

B1: SEQ ID NO: 138: Thalassospira profundimaris WP0211 aminotransferase (protein)
chain: MNHRPNSLHMSDIAHSMHPYTNMRLHEEKGPMIMAEGNGARVTDSEGKEYIEGLAGLWSVAVGFSETRLADAAYAQLKRLPYYHSFAHKAHEPSIRLAEKLVEMTPEGLNRVFFTNSGSEANDTVVKMAWFLNNGLGRPEKKKFLSRTKAYHGITIASGSLTGLAGNQKDFDLPAIPVTHLSCPHFWRYGEEGETETEFTARLLKELEDTIIAEGPETIAAFIGEPVMGAGGVMTPPEGYWPGVVEICHKYDILVVSDEVINGFGRTGARFGCEKYGFTPDILVTSKQLTSSYMPLAAIVVNDKVYNAIADNTAKLGNFGHGFTGTGHPVACAVGLENLNIIEERDLMGNAKRLEPMFQDGLRAFADHPLIGEIRGVGLIAGLEMADKKTKQPFGKPGTVAAKVVALAAEEGLICRNVYDTVALCPPLIVTEDDVREIHARLGRALDRALDWAKSEGML
modifications: Thalassospira profundimaris WP0211
notes: Thalassospira profundimaris WP0211 aminotransferase
B2: SEQ ID NO: 121: Haematobacter missouriensis aminotransferase (protein, listed as Haematobacter missouriensis)
chain: MMDTLPNSLAARDVKYLLHPNTNARMHEQNGPMVISRGDGIHVYDDAGKEYIEALAGLWSVAVGFGEKRLVEAAQRQMSTLPYYHIFSSKSHEPAIDLAETLVKMTPEHLTRVFYTNSGSEANDTVVKMIWYYNNVLGRPEKKKIIARKNGYHGITVASASLTGLPINHKDFDLPLPQMKHVTTPHFYRFGEEGETEEQFSDRLAQEIEDMILAEGPETVAAFIGEPVIGAGGVLVPPKGYWEKVQKVLKKYDILLVADEVIMGFGRSGKTFACEYYGIKPDFLVLSKQITSSYQPLAAIMLTDAIYQAIADGSQKNGAFGHGYTASGHPVAMAVAIENLKIIEERGLVANAEKVGAYMQKRLREFADHPLVGEVRGVGLIAAVELVADKATKAKFDPVGKAGAIYTRKSAENGLINRAIGDTICFCPPLIITEAQVDEMIARFSKSLDETAAELKG
B3: SEQ ID NO: 171: Tistrella mobilis aminotransferase (protein)
chain: MAYSPNSPEARDIAYHLHSYTDARRHEETGSVVLEKGDGVFVEDIHGNRYIEAMAGLWSVALGFSEKRLADAAARQMAKLPFAHTFSYKSNGPVIDLAEKLISLAPVPMSKVFFTNSGSEANDTILKLLWYRSNSMGQPQRKKIISRVRGYHGVTIASASLTGLPNNHRSFDLPIANVLHTGSPHHWKDANPGESEEDFATRRAEELEAMILAEGPETIMAFIGEPVMGAGGVVVPPATYWEKIQAVLAKYDILLIADEVICGFGRTGNMFGSQTYDMRPDIMTMSKQLSSSYLPISAFMINEKVYGPIADESHRIGVLGHGFTAGGHPVASAVALENLKIIEERDLVANAREMGERLRGRFHALEGHPLVGEVRGVGLIAAVELVTNKEAKTALEAPGALGGKVAAALQARGVIVRNMLDAIAFCPPLIIKAEEVDMIADRFEAVLNDVAAEVL
modifications: Tistrella mobilis (strain KA081020-065)
notes: Tistrella mobilis aminotransferase
B4: SEQ ID NO: 172: Pseudomonas taiwanensis SJ9 aminotransferase (protein)
chain: MSQSNILLAKKDVQHHLHPYTDARLHQDVGPLIIDRGEGVYVFDVEGKRYIEAMSGLWSVALGFSNERLVKAAEQQMRKLPFYHIFTHKGHGPSIELAEKLIEIAPVPMSKVFFTNSGSEANDTVVKMIWYRNNALGKPEKKKFISRLNAYHGITAVSASLTGLPVNQRGFDVPLPGFHHVSCPHFYRNGQPGETEEQFADRMAAELESVILREGPETIAAFYGEPLMGAGGVIVPPRTYWEKMQAVCRKYDILIVADEVICGFGRTGKMFGCETFGIQPDVMVISKQMSSSYQPIAAILINEKVFEGIADQSRALGTLGHGFTASGHPVASAVALENIKIIQEQNLVGHAAEMGELLRAKLAGFADHPMVGEVRGCGLIAAVELVTDRKTKAPFETVGRLGRFLAARAQAHGMITRPIGDSIAFCPPLISTKQEIQEIADIFGKAFEDTERWFSQGGK
modifications: Pseudomonas taiwanensis SJ9
notes: Pseudomonas taiwanensis SJ9 aminotransferase
B5: SEQ ID NO: 174: Candida tenuis aminotransferase (protein, listed as Candida tenuis)
chain: MNSSKSQICLATERQYSAKNYTPMPVVFKKAIGCKVWDVDDNEYLDFGGSYCATNQGHSHPKIVQALIDQAQICALPSRAFTHNLYGDYIKFVCQYFDFEKALPLNGGSEAIEFAIKLARAWGYTKKGISQNEAIVLFAANNYHGRTLGSTSASTTPGARKNYGPFLPKVGPYYGSEGKFIRYNHIEDIEEAFKTDGPNIAAIVLESLQGEAGIYVPKDGYLQQVKRLCEEYNILYIADEVQMGAGRTGTLLSCEQDGIKPDVLVVAKSIGGGVYPTSLVLSSGEIMDCIEPNSHGATFSGSPLSCATSKVALEVLIEDNMIDNAKHLGKIMLDGLNSIREKSSIITDVRGRGLMAGFDIDESQLNGKKVWHVCMLLRSKGIICKMVHAKTIRWAPALVITEEELRFGLRMLEQTINEITALEIADIPDAVTFDYLRY
modifications: Candida tenuis (strain ATCC 10573 / BCRC 21748 / CBS 615 / JCM 9827 / NBRC 10315 / NRRL Y-1498 / VKM Y-70)
notes: Candida tenuis aminotransferase
B6: SEQ ID NO: 168: Rhodospirillum centenum aminotransferase (protein)
chain: MPSTAPHLGNSIASRDIASLLHPYTNLKAHESVGPMVITGGRGVTVVDDAGREYIEGVAGLWCTSLGFDEPRLVEAAVRQLRTLPFYHAFAHKSHEPGIELAEKLVALAPVPMSKAFFACSGSEANDTAVKLVWYYNNALGRPQKKKIIGRIKAYHGVTVASASLTGLPNNHRDFDLPIDRILHTDCPHWYRFHEEGEDEEAFASRLAASLEALIQREGPETVAAFIAEPVMGAGGVIVPPRTYFEKIQAVLRKHDVLLIADEVICGFGRTGAMFGSETFGLKPDIMTMAKALTSAYMPLSAVLVSEPIYRACVAESEKIGVFGHGYTYSGHPVSCAVALETLKIYEERDIVAHTRAVGARLQEGLARYRSHPLVGEVRGVGLIAGVELVADKATRQPFDPKLGVAARLAGFAQGHGAILRPIGDTLGFSPPLIITPEEVDELVARFGRALDDTTAWLEHEHRFRPA
modifications: Rhodospirillum centenum (strain ATCC 51521 / SW)
notes: Rhodospirillum centenum aminotransferase
B7: SEQ ID NO: 170: Acidimicrobium ferrooxidans aminotransferase (protein)
chain: MGRFWHPFGQLYESDTNPVVFVRGEGIWVYDDTGRRYLDATAALWYANVGHGRAEIADAIAAQARELAGYSTFGTFSNRPAEELAEFLSARSPMPESEVFFVSGGGDAVETAVKLARRYFSLVGQPERTVLISRTNGYHGTWGFGTSLGGIPANRTGFGELIPTTVQVPWDDVEAVEAAIVANGPERVAAVIAEPVIGAGGVYPPPPGYFEALGATCRRHGVLLIVDSVICGFGRLGTWFGIERLGVEPDLITFAKGVTSGYLPLGGVMVSGRVAAPFKQPGAPVFRHGPTYGGHPTCTAAGIANCRILEDEQILARGAVLEGELLARLRPLASSALVAEVRGGLGLLGAVELRSDLLAEHPDALARLARLALERGIIVRVLATSIALSPPLIIEPAEIGVIVEGLADALDALAAEL
modifications: Acidimicrobium ferrooxidans; Acidimicrobium ferrooxidans (strain DSM 10331 / JCM 15462 / NBRC 103882 / ICP)
notes: Acidimicrobium ferrooxidans aminotransferase
B8: SEQ ID NO: 173: Methylobacterium aquaticum aminotransferase (protein, listed as Methylobacterium aquaticum)
chain: MLSNLATRDVETLIHPYTNLAAFRQTGPLVLERGHGVWVYDTDGRPYLEGMAGLWCTALGYSNEELVEAAREQMSRLPFTHLFSGRSHDPAIELAETLKELAPIPVSKVFFTSSGSEANDTQVKLTWYLNNALGRPQKKKIIGRHKGYHGVTVASASLTGLTANHADWDLPLPGFLHAACPHHYRGAEAGETEEAYSARLATELEEMILREGPETVAAFIAEPVMGAGGAIVPPKGYFAAIEPVLARYDVRFIADEVICGFGRLGTWFGSEALGMKPHSLSFAKALTSAYMPLGGVTVDETLYQAMQDQSRKIGTFGHGTTYSGHPVASAVALKTIEIYRRDKIIEGAAEKAPHFQRRLSALEEHPLVGEAKGMGLIGGLEIVADKATKRQYDPKAGVAARCVAFAQEEGLIVRFLTGDRVAVCPPLVIRPDEIDTLFDRLGTALDRTQAWIREQGLTAA
B9: SEQ ID NO: 169: Marine sediment metagenome aminotransferase (protein)
chain: MTVQPNSIEARDIAFHLHSYTNARKHETNGPVVIDKGEGVFVTDTDGNRYIEAMAGLWSVAVGFGEKRLVDAAAKQMGKLPYYHTFTHKSHSPAIELAEKLVAMAPVPMSKAYFTNSGSEANDTMMKLVRYRSNALGQPQKKKFISRMRGYHGVTLASASLTGLVNNHRDFDLPIEGVLHTTCPHYWREGRDGESEEDFATRCAEDLEAMIQAEGPETIAAFIGEPVMGAGGVVVPPATYWEKIQAVLKRHDILLVADEVICGFGRTGEMFGSQTYGIEPDIMTLSKALSSSYLPISALLINEKVYGPIADRSAEIGTLGTGYTASGHPVAAAVALENLKIIEERDLVGNAREMGTLMQCRLRELENHPLVGEVRGVGLIAAIELVTDKKAKVAMQPPGAMAAQAFAILQKNGVISRAIGDALAFCPPLIIEAGHIDTIVETTRRSLDELQASL
modifications: Description of Unknown: Marine sediment metagenome
notes: Marine sediment metagenome aminotransferase

Experiment: In vivo aminotransferase activity screening, 7-aminoheptanoate by LC-MS
Type: cell-based, Escherichia coli
Conditions: in vivo conversion of 7-oxoheptanoate to 7-aminoheptanoate, 120 aminotransferases screened
Procedure: A 165-member aminotransferase library from Twist on IPTG-inducible T7- pUC expression vectors was co-transformed into T7 Express lysY/Iq with a constitutive expression pJ23150-derived plasmid bearing the phosphopantetheinyl transferase sfp from Bacillus subtilis, CAR_Srot from Invista and BioC from Serratia marcescens (UniprotKB Accession No. P36571 (SEQ ID NO: 165)). The resulting strains were incubated in 0.5 ml of rich media (terrific broth or LB containing 8% glycerol) supplemented with 0.4 mM IPTG and received 1 g/L monomethyl heptanedioate, 1 g/L heptanedioate, or no organic acid addition, depending on the experiment. Following incubation overnight at 37° C. in a shaking incubator, cells were pelleted and the supernatants were analyzed using LC-MS for 7-aminoheptanoate or monomethyl 7-aminoheptanoate. A Vibrio fluvialis aminotransferase (UniProtKB Accession No. F2XBU9 (SEQ ID NO: 128)) was used as a positive control.

Molecule | 7-aminoheptanoate yield compared to the positive control (F2XBU9)
B1 | higher 7-aminoheptanoate yields
B2 | higher 7-aminoheptanoate yields
B3 | higher 7-aminoheptanoate yields
B4 | higher 7-aminoheptanoate yields
B5 | higher 7-aminoheptanoate yields
B6 | higher 7-aminoheptanoate yields
B7 | higher 7-aminoheptanoate yields
B8 | higher 7-aminoheptanoate yields
B9 | higher 7-aminoheptanoate yields
